Data published in publication doi:10.1101/2024.12.03.626679, “Structure of the SMYD2-PARP1 Complex Reveals Both Productive and Allosteric Modes of Peptide Binding” (bioRxiv, 2024).
pIC50: −log10 of the molar value.

What was measured:
SMYD2-F184A (human) [1] = target: SMYD2-F184A (human) (UniProt Q9NRG4); assay: ELISA; inhibition: SMYD2 proteins pre-incubated with varying concentrations of the PARP1 peptide, then added to wells coated with PARP1(518-1014), H3 or H4; four-parameter logistic fit
SMYD2-F184A (human) [2] = target: SMYD2-F184A (human) (UniProt Q9NRG4); assay: ITC; NanoITC SV, 27°C, 25 mM Tris pH 7.5, 50 mM NaCl; 40 μM SMYD2 in the cell, 631 μM PARP1 peptide in the syringe, 16 injections of 15 μL; one-site, two-site and binding polynomial models

Sequence of SMYD2-F184A (human) (Q9NRG4 whole entry F184A): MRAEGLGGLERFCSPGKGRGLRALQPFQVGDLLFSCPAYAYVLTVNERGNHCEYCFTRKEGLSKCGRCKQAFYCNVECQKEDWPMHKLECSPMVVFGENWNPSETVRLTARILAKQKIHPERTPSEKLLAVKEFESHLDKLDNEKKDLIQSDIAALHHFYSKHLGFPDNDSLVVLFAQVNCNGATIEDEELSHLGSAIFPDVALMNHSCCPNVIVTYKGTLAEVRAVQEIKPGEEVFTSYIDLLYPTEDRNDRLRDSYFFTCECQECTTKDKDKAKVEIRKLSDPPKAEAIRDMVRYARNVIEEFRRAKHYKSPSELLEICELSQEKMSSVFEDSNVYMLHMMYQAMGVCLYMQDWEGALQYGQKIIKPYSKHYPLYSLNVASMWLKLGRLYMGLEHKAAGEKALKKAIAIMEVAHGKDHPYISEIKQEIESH

pIC50 (SMYD2-F184A (human) [1]): 6.82
stoichiometry N (SMYD2-F184A (human) [2]): 1
Substance: PARP1 peptide (13-residue synthetic peptide, human PARP1 residues 522-534)
